Source: article PMC5800781 (Nature, 2017)

B1: RAD51 (natural protein, human, UniProt Q06609 1-339, looked up)
chain: MAMQMQLEANADTSVEEESFGPQPISRLEQCGINANDVKKLEEAGFHTVEAVAYAPKKELINIKGISEAKADKILAEAAKLVPMGFTTATEFHQRRSEIIQITTGSKELDKLLQGGIETGSITEMFGEFRTGKTQICHTLAVTCQLPIDRGGGEGKAMYIDTEGTFRPERLLAVAERYGLSGSDVLDNVAYARAFNTDHQTQLLYQASAMMVESRYALLIVDSATALYRTDYSGRGELSARQMHLARFLRMLLRLADEFGVAVVITNQVVAQVDGAAMFAADPKKPIGGNIIAHASTTRLYLRKGRGETRICKIYDSPCLPEAEAMFAINADGVGDAKD

How the values were obtained:
BRCA1 = BRCA1 (UniProt P38398 1-1863); assay: far-Western, overlay or dot blot
BARD1 = biological target: T1, BARD1 (human, UniProt Q99728 1-777); assay: far-Western, overlay or dot blot
T1 sequence (looked up): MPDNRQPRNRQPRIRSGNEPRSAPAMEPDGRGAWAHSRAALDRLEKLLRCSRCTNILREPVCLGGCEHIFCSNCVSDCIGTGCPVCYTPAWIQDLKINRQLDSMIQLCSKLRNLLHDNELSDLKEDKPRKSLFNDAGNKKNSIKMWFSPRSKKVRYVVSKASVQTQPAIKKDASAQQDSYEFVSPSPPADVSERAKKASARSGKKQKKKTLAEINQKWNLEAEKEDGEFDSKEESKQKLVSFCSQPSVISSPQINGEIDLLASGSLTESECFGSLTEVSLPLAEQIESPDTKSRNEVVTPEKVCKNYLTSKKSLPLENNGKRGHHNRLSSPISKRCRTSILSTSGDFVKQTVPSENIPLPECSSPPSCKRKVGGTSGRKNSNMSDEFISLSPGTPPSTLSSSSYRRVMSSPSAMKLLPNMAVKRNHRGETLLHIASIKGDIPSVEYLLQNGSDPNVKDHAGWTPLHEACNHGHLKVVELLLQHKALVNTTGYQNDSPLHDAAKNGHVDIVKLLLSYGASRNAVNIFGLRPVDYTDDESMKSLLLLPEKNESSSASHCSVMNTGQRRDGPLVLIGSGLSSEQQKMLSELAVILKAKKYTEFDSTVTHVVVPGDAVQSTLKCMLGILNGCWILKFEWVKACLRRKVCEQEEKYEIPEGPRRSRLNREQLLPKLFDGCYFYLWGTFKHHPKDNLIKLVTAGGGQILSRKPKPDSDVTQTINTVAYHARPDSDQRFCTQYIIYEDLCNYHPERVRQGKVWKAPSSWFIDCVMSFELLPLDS

BRCA1-BARD1 complex = BRCA1-BARD1 complex ( | human, UniProt P38398 1-1863; Q99728 1-777); assay: pull-down
[1] = biological target: BRCA1^1-500-BARD1 complex ( | human, UniProt P38398 1-500; Q99728 1-777); assay: pull-down
[2] = biological target: BRCA1^Δ758-1064-BARD1 complex ( | human, UniProt P38398 1-1863; Q99728 1-777, Δ758-1064); assay: pull-down
RAD51 = biological target: B1; assay: pull-down

Measured: binding result

B1
not listed: RAD51
binds: all other assays above

LKEDKPRKSLFNDAGNKKNSIKMWFSPRSKKVRYVVSKAS (domain or fragment, human, UniProt Q99728 123-162, looked up) [GST-BARD1^123-162]
binds: RAD51
